Results as given in article PMC8561398, “The Histidine Ammonia Lyase of Trypanosoma cruzi Is Involved in Acidocalcisome Alkalinization and Is Essential for Survival under Starvation Conditions” (mBio, 2021).

Substrate: N[C@@H](Cc1c[nH]cn1)C(=O)O
Experiment: purified protein
Format: biochemical, Trypanosoma cruzi
Settings: 100 mM Tris-HCl pH 8.8, 0.1 mM MnCl2, 1.7 mM reduced glutathione, 30°C, L-histidine 0.2 to 5 mM, four catalytic sites considered

B1: 6×His-HAL (rHAL; histidine ammonia lyase) (Trypanosoma cruzi strain CL Brener) (protein)
chain: MRVILDGCSLTPDVLYALGYEKGATIEISDEAVARITAARAVIDKIVNDRQTVYGINTGFGKFESTIIPPHQLEELQLNLIRSHSACVGEPLTPERARMMLALRVNVLCKGHSGIRLETVQKYVKAFNAGVVPYIPEQGTVGASGDLGPLSHLALGMLGEGLLATLNNKKFRDAGSVLRELGVEPITLAAKEGLALINGTQFISALGAEAVVRARKIARLADVALAMSHEALRATNSTLNPDIHRVRPHKGQQLVAQRLRALLHSEEYPSMINESHVNCGRVQDAYSIRCAPQVHGISNEVIEWVYGILTTELNCATDNPLVFPDGVKKVVSGGNFHGEYPAKALDMLAIGVHELGNISERRIERLNNPTLSRLPAFLVKNGGLNSGFMIAHCTAAALVSENKVYCHPASADSISTSAAQEDHVSMGGFSARKAIKVVENVERIIAIELLGACQGIDLLRPLRTTEPMEKVWSLVRSVSPPWEEDRVINTDIDNVTKLLRSGAVWKTVKPYVPEEARFLGVLTVKKPFELKSKM
notes: four catalytic sites considered; Q4E133 used for alignment; locus tag from YC6
kcat: 9.027 to 11.7 s⁻¹
